The results in this text go back to paper PMC4873981.

This experiment concerns the target Myc-MRTF, full-length Y866G mutant (UniProt P59759). The experiment in a line: co-IP; LLC-PK1 cells co-transfected with Myc-MRTF constructs and HA-TAZ constructs, IP with anti-Myc, blot for HA; untreated or LCM 30 min.
Chain of UniProt P59759 (P59759 whole entry Y866G): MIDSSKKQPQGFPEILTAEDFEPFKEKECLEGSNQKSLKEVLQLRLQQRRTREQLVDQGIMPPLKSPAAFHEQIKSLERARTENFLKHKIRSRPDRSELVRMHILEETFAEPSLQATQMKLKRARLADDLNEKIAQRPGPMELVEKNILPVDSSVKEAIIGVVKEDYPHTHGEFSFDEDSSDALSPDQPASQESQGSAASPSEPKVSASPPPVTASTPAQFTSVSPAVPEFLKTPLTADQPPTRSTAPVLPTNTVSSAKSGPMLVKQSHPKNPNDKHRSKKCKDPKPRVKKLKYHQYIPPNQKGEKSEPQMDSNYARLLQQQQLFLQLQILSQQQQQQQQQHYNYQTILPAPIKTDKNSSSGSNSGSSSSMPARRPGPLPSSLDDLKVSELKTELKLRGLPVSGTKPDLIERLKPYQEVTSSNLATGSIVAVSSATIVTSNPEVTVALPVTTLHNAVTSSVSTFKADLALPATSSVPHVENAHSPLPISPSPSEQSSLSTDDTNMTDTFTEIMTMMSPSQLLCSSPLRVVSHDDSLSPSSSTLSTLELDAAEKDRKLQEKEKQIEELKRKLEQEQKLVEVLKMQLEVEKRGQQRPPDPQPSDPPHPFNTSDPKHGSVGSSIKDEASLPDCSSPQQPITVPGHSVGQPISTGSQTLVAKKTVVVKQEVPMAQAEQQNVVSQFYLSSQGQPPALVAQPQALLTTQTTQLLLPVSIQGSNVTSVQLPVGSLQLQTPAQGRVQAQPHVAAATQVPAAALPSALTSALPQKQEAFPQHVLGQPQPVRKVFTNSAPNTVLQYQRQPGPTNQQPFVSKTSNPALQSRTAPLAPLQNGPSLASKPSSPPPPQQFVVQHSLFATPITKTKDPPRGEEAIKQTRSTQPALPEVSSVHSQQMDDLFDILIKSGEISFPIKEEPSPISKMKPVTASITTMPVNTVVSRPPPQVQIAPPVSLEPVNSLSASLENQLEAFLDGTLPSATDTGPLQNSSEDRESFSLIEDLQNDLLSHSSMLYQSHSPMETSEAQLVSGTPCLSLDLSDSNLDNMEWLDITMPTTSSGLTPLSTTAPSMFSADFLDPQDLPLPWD

Substance “HA-TAZ, wild type (from UniProt Q9GZV5 1-400) (natural protein)” displayed a reduction in association against WT MRTF greater than 50%.
